The results in this text go back to patent US20220363775A1 (Memorial Sloan Kettering, published 2022).

Assay [1] deals with T1, human Adhesion G protein-coupled receptor E2 (ADGRE2) (human, UniProt Q9UHX3 24-823).
T1 construct: No signal peptide limits are stated; also called EMR2; CD312
T1 sequence: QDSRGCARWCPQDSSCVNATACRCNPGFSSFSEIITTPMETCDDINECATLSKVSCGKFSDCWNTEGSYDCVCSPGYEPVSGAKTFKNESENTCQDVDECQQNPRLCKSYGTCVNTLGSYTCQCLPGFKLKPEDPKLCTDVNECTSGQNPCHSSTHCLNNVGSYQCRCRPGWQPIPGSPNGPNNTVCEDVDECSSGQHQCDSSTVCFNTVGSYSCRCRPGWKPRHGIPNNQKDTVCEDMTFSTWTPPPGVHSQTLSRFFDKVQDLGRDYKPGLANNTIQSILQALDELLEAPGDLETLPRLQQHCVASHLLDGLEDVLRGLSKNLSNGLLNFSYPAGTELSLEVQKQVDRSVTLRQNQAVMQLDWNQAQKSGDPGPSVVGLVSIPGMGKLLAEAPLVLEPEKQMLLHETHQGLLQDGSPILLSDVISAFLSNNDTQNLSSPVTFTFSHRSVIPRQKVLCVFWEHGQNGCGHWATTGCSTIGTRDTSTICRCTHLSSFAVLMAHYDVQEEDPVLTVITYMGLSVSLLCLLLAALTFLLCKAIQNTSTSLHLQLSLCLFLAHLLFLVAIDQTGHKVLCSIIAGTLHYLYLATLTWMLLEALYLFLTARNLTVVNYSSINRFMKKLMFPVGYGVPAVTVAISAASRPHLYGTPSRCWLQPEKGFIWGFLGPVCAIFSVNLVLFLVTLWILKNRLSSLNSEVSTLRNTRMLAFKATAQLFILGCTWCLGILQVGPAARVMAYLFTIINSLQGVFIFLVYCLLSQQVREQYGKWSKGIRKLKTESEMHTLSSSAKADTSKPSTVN
Kind of assay: flow cytometry, scFv titration on EL4 cells overexpressing ADGRE2. The method, then: This example illustrates the on-cell binding for the anti-ADGRE2 scFvs as measured by flow cytometry. The on-cell binding for the anti-ADGRE2 scFvs was assessed by flow cytometry on the E4 cells overexpressing ADGRE2. Each of the scFvs were tested for binding to ADGRE2 and compared to the Reference 1 mAb. Briefly, 100,000 cells per well, were plated in 96 well V bottom plate, scFvs were diluted to 200 nMscFv then 1:4 serially down to 0.01 nM. A dose dependent titration of the scFvs validated recombinant scFvs folding and binding to ADGRE2. EC₅₀ affinities were compared in order to better interpret any differences seen in-vivo that might be caused by variations in affinities resulting from the humanization process Data was analyzed using Prism software, using a four parameter regression. The approximate EC₅₀ values were determined using equation: Y=Bottom+(Top−Bottom)/(1+10\hat{ }((Log EC₅₀−X)*HillSlope)) where the fitted parameters are defined as follows: Bottom, the lower plateau describing minimum binding achievable; Top, the upper plateau describing the maximum binding achievable; Log EC50, the inflection point of the dose response curve also known as the concentration producing a half-maximal response; and Hill-Slope, the slope of the dose response curve.
For orientation: A flow cytometer gives signals particle by particle.

The next assay concerns the target T2, ADGRE3 (human, UniProt Q9BY15 22-652).
T2 construct: whole, on cells
T2 sequence (looked up): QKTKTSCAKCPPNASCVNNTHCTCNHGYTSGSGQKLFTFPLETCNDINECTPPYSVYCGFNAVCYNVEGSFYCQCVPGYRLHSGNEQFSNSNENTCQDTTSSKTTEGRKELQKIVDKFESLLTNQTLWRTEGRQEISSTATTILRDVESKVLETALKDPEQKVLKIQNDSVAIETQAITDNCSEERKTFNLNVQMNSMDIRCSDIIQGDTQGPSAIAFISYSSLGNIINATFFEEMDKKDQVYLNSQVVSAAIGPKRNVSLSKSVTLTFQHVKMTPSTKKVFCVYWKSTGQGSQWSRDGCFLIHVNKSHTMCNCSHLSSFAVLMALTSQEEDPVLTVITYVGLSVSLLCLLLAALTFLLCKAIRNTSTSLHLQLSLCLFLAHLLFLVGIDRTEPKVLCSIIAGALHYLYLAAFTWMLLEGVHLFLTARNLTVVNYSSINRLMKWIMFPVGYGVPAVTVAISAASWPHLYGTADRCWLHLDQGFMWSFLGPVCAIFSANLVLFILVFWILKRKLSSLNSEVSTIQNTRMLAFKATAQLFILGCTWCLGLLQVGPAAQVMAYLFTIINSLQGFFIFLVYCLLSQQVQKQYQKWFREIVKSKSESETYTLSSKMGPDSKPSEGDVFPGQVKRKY
Put plainly: cell microarray screen on HEK293 cells overexpressing human membrane proteins. As to the method:
(§1) The off-target binding interactions of ADGRE2 scFv (ADGRE2-A) and CLEC12A scFv (CLEC12A-A) to human plasma membrane proteins were carried out in a 4-phase approach: (1) pre-screening to determine the optimal concentrations of purified recombinant ADGRE2 scFv-Fc and CLEC12A scFv-Fc test proteins for the screening; (2) screening for binding of the test proteins against fixed HEK293 cells overexpressing 5,474 full-length human plasma membrane proteins and cell surface tethered human secreted proteins and 371 human cell surface heterodimers, which identified library hits; (3) confirmatory/specific screens using fixed-cell and live-cell microarrays; (4) flow cytometry-based follow-on study to investigate further identified test protein-specific interactions on live cells; and (5) cell-to-cell binding assays to confirm positive hits. The table below summarizes the off-binding data for ADGRE2 scFv and CLEC12A scFv.

The target of another assay is T3, ADGRE1 (human, UniProt Q14246 21-886).
T3 construct: whole, on cells
T3 sequence (looked up): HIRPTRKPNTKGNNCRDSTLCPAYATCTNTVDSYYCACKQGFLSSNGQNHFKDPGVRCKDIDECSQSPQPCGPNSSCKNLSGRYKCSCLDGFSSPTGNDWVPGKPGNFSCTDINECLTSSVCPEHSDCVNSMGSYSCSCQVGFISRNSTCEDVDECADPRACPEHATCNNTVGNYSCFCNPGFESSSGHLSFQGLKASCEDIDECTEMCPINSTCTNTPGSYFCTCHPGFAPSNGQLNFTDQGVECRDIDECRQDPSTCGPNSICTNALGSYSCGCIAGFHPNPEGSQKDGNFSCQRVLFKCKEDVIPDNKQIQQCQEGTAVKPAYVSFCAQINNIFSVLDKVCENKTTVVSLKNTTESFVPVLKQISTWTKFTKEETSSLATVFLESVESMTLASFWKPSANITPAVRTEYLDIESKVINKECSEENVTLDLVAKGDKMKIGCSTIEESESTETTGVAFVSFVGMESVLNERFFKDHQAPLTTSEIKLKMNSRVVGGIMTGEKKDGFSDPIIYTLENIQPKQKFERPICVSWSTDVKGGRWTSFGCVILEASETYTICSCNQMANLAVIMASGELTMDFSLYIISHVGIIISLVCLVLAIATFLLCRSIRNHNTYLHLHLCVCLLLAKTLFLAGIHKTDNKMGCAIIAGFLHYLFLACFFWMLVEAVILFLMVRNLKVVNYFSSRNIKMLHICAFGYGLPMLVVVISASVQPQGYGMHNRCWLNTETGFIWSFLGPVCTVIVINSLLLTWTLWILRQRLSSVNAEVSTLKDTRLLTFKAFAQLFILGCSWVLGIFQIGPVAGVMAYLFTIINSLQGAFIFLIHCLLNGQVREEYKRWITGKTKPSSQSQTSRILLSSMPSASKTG
The assay is described as above. As to the method:
as §1

For a further assay, the target named is T4, ADGRE5 (human, UniProt P48960 21-835).
T4 construct: whole, on cells
T4 sequence (looked up): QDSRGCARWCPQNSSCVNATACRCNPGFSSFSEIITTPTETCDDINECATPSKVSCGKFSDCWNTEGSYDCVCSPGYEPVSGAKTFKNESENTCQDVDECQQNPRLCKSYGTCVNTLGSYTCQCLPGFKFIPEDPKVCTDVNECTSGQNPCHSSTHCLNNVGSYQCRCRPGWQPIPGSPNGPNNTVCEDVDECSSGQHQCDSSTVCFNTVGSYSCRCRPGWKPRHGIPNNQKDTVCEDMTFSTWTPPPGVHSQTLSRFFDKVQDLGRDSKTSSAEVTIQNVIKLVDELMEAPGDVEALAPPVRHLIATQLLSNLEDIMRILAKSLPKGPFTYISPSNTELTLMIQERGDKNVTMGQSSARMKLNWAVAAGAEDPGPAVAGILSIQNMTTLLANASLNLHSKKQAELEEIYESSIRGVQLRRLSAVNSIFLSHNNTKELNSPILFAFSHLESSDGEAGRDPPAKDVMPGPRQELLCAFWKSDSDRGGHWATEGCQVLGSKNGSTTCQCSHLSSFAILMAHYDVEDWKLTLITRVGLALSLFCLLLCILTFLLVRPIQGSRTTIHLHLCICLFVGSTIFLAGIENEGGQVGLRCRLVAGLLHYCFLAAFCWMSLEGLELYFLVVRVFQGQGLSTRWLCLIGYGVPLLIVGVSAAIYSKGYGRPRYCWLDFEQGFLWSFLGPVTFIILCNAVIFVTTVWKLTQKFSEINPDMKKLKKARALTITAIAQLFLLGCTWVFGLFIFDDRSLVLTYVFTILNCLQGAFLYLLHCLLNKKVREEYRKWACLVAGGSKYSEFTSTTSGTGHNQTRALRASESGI
The assay is described as above. As to the method:
as §1

Broadly, the EC50 is the concentration giving half of the maximal effect. A higher EC50 goes with a need for much substance.

Changes are numbered by the printed parent chain.

B1: ADGRE2-C scFv (scFv)
scFv: QVQLQQSGAEVKKPGASVKLSCKASGYTFTNYWMQWVRQAPGQGLEWIGAVYPGDGDTRYTQKFQGRATLTADTSTSTVYMEVSSLRSEDTAVYYCARGFTAYGMDYWGQGTTVTVSSGGGGSGGGGSGGGGSEIVLTQSPATMSASPGERVTMSCSASSSVSYMHWYQQKSGLSPKRWIYDTSKLASGVPDRFSGSGSGTDYTFTISRMEPEDFATYYCQQWSSNPLTFGGGTKLEIK
notes: Recombinant humanized scFv; Any tag is not described
In assay [1], B1 displayed an EC50 of 53.2 nM.

B2: ADGRE2 scFv-Fc (purified recombinant ADGRE2-A scFv fused to Fc) (Fc fusion)
chain: QVQLQQSGAEVAKPGASVKLSCKASGYTFTNYWMQWIKQAPGQGLEWIGAVYPGDGDTRHTQKFKGKATLTADKSTSTAYMEVSSLRSEDTAVYYCARGFTAYGMDYWGQGTTVTVSSGGGGSGGGGSGGGGSEIVLTQSPATMSASPGERVTMSCSASSSVSYMHWYQQKSGQSPKRWIYDTSKLASGVPARFSGSGSGTDYTFTISSMEPEDFATYYCQQWSSNPLTFGGGTKLEIK
notes: also called ADGRE2 scFv (ADGRE2-A); not shown: Fc part (and any linker) of the scFv-Fc is not described
For the molecule B2, the binding result with ADGRE3, in the assay with ADGRE1 and with ADGRE5 was “no binding” throughout.

B3: ADGRE2-F scFv (scFv)
scFv: B1 scFv with V37I, V79A, M144L, S172P, S175A, K177R
notes: as for B1
B3 displayed a concentration for a half-maximal effect (EC50) in assay [1] of 16.4 nM.

B4: ADGRE2-A scFv (scFv)
scFv: B2 chain
notes: as for B1
In assay [1], B4 registered a concentration for a half-maximal effect (EC50) of 93.8 nM.

B5: ADGRE2-B scFv (scFv)
scFv: B1 scFv with V37I, T76I, V79A, S85R, E89D
notes: as for B1
Take B5: the midpoint of the response in assay [1], the EC50, lay at 55.3 nM.

B6: ADGRE2-E scFv (scFv)
scFv: QVQLQQSGAEVKKPGASVKVSCKASGYTFTNYWMQWVRQAPGQGLEWIGAVYPGDGDTRHTQKFKGRVTMTADKSTSTVYMELSSLRSEDTAVYYCARGFTAYGMDYWGQGTLVTVSSASTGGGGSGGGGSGGGGSQIVLTQSPATLSLSPGERATLTCSASSSVSYMHWYQQKPGLSPKRWIYDTSKLASGVPDRFSGSGSGTDYTFTIRRLEPEDFATYYCQQWSSNPLTFGQGTKVEIK
notes: as for B1
B6: in assay [1], a half-maximal response (EC50) required 10.6 nM.

B7: ADGRE2-D scFv (scFv)
scFv: QVQLQQSGAEVKKPGASVKVSCKASGYTFTNYWMQWVRQAPGQGLEWMGAVYPGDGDTRHTQKFKGRVTMTRDTSTSTVYMELSSLRSEDTAVYYCARGFTAYGMDYWGQGTLVTVSSASTGGGGSGGGGSGGGGSEIVLTQSPATLSLSPGERATLSCSASSSVSYMHWYQQKPGLAPRLLIYDTSKLASGIPDRFSGSGSGTDFTLTISRLEPEDFAVYYCQQWSSNPLTFGQGTKVEIK
notes: as for B1
Regarding B7, the concentration for a half-maximal effect (EC50) in assay [1] came out at 16.4 nM.
